Assay results reported in patent US20240010735A1 (EISAI R AND D MANAGEMENT, published 2024).

How the values were obtained:
Assay in all cases: ELISA: Fc-His proteins (1 nM) captured on anti-6-His antibody, antibody A 10 µg/mL with human IgG 100 µg/mL, HRP anti-mouse IgG, OD450 as % of mouse EphA4-Fc-His
[1] = target: T1, mouse EphA3 extracellular region-Fc-His protein (mouse; human, UniProt P29319 21-540)
T1 construct: extracellular domain; not shown: Fc region of human IgG1; histidine tag
T1 sequence (looked up): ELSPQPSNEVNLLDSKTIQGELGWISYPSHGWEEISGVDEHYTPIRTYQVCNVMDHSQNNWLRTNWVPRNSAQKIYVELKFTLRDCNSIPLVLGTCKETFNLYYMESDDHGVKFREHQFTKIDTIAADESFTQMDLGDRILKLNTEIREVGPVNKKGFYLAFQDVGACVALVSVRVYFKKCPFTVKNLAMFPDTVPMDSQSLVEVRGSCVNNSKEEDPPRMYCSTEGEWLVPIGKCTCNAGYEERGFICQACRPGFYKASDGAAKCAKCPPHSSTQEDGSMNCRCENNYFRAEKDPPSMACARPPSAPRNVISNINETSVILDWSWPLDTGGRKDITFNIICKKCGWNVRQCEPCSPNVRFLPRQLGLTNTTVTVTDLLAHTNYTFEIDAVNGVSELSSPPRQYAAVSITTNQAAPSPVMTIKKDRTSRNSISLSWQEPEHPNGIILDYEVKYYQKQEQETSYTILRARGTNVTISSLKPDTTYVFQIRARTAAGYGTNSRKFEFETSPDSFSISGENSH
Protocol: (§1) Rabbit anti-6-His antibodies (Bethyl Laboratories) were coated onto the wells of a 96-well plate (Nunc). After incubating at 4° C. overnight, the wells were blocked at room temperature for 1 hour by 1% Block Ace (DS Pharma Biomedical). After washing 3 times with 0.05% Tween 20/PBS (Thermo […]), each Eph receptor of mouse extracellular region-Fc-His protein (final concentration 1 nM) was seeded into each well, and incubated at room temperature for 1 hour. After washing 3 times, human IgG solution (100 μg/mL, Sigma) and antibody A (10 μg/mL) were supplemented to the wells, and incubated at room temperature for 1 hour. Horseradish peroxidase-labeled donkey anti-mouse IgG antibody (Jackson ImmunoResearch Laboratories) was added, and incubated at room temperature for 1 hour. After washing 3 times, TMBZ (3,3′,5,5′-tetramethylbenzidine, Sigma) solution was added to the wells, and upon confirmation of modest coloring, an equal amount of quenching solution (1 N H₂SO₄, Wako Pure Chemicals) was added to the wells, and absorbance at 450 nm was read by a microplate reader (PerkinElmer).

[2] = target: T2, mouse EphA10 extracellular region-Fc-His protein (mouse; human, UniProt Q8BYG9 23-565)
T2 construct: extracellular domain; not shown: Fc region of human IgG1; histidine tag
T2 sequence (looked up): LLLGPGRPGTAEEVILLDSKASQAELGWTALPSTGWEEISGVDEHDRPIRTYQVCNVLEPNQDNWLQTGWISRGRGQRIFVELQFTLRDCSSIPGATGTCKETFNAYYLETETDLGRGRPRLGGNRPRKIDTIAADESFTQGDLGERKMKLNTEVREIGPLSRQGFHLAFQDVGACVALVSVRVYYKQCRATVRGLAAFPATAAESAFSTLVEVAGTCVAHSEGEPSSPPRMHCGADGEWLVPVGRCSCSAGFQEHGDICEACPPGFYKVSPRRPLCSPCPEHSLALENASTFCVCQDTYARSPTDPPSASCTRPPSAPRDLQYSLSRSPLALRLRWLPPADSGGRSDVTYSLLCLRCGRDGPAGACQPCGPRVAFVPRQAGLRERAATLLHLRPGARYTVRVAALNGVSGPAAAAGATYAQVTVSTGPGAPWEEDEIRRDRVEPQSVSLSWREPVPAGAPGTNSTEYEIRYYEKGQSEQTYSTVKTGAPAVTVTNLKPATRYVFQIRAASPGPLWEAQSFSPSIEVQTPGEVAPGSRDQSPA
Protocol: as §1

[3] = target: T3, mouse EphB4 extracellular region-Fc-His protein (mouse; human, UniProt P54761 16-539)
T3 construct: extracellular domain; not shown: Fc region of human IgG1; histidine tag
T3 sequence (looked up): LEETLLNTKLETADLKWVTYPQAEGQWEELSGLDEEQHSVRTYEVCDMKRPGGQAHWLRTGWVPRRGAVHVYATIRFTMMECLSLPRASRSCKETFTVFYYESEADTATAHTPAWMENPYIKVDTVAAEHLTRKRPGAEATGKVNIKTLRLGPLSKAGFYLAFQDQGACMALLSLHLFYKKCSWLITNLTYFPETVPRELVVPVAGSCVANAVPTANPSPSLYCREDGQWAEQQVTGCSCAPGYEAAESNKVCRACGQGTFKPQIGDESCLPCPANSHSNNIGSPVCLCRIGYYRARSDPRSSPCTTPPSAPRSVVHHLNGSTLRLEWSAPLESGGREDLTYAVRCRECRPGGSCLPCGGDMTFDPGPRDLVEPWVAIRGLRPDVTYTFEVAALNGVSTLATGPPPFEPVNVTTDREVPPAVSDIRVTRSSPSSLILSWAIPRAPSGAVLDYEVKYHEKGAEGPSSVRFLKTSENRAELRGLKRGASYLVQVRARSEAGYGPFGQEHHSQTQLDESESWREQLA
Protocol: as §1

Measured: binding result

B1: mouse anti-EphA4 monoclonal antibody (antibody A) (antibody, mouse IgG1, kappa, V domains shown)
VH: QVQLKQSGPSLVQPSQSLSITCTVSGFSLTRYGVHWVRQSPGKGLEWLGVIWRGGSTDYNAAFMSRLSITKDNSKSQVFFKMNSLQADDTAIYYCAKESLFGVYYDYGYYSMDYWGQGTSVTVSS
VL: DIQMTQSPSSLSASLGERVSLTCRASQEISGYLSWLQQKPDGTIKRLIYAASTLDSGVPKRFSGSRSGSDYSLTISSLESEDFADYYCLQYASYPLTFGAGTKLELKR
notes: purified from hybridoma supernatant
no binding (tested: 10 µg/mL): all assays above
